For 4 molecules, Kd, Km and kcat results are on record in PMC4608764, “The Q Motif Is Involved in DNA Binding but Not ATP Binding in ChlR1 Helicase” (PLoS ONE, 2015).

The target of one data set is T1, ChlR1 (DDX11), (Homo sapiens, UniProt Q96FC9, Q23A).
T1 sequence (Q96FC9 1-906 isoform Q96FC9-2 Q23A): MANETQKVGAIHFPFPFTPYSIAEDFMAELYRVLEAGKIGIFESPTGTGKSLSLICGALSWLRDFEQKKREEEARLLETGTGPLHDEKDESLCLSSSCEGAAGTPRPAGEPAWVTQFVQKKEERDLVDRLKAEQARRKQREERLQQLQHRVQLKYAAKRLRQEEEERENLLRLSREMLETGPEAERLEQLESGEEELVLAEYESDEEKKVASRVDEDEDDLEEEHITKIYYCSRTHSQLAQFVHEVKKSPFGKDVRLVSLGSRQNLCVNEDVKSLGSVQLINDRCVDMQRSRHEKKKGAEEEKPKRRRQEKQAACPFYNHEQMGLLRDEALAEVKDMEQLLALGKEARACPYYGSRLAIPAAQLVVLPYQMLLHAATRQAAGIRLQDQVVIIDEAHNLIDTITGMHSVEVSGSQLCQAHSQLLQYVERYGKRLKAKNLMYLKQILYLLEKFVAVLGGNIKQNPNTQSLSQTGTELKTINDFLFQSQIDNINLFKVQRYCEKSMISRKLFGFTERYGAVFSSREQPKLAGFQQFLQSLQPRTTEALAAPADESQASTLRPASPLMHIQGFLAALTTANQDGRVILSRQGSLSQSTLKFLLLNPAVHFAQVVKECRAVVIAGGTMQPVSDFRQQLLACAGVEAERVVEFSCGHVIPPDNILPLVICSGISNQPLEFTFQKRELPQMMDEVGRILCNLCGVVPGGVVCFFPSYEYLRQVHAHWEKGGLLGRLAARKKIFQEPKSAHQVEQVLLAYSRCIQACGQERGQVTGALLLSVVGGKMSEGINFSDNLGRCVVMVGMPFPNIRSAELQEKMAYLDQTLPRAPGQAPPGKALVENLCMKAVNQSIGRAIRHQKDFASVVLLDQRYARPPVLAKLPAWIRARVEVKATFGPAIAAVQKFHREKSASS
As to the kind of experiment: nitrocellulose filter-binding (dot blot) assay.

In another data set the target is T2, ChlR1 (DDX11), ChlR1-WT (Homo sapiens, UniProt Q96FC9).
T2 sequence (Q96FC9 1-906 isoform Q96FC9-2): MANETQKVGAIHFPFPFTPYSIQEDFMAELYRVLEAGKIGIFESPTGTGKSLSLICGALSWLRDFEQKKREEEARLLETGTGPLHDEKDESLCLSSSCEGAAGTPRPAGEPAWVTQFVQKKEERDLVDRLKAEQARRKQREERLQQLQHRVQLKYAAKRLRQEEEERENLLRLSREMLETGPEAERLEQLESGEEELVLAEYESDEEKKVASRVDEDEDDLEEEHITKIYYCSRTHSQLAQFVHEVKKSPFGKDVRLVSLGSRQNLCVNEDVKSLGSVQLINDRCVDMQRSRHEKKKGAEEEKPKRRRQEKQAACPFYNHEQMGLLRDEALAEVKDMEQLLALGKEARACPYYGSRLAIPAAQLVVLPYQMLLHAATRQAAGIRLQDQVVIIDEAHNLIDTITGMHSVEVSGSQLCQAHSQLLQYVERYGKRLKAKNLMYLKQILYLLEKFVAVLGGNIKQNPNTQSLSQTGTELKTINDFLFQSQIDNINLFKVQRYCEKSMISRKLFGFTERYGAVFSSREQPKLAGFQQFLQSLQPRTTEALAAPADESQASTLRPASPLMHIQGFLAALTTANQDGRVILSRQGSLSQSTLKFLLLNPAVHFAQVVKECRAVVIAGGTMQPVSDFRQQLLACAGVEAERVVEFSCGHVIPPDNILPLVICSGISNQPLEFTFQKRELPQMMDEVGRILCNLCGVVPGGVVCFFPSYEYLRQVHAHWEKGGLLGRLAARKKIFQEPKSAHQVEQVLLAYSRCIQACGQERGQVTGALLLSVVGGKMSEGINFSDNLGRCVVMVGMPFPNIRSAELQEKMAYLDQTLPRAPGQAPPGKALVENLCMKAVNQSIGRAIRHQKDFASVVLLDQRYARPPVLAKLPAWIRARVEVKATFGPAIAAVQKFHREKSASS
As to the kind of experiment: nitrocellulose filter-binding (dot blot) assay.

Data set [1] concerns the target T3, ChlR1-WT (Homo sapiens, UniProt Q96FC9-2 1-906).
T3 sequence: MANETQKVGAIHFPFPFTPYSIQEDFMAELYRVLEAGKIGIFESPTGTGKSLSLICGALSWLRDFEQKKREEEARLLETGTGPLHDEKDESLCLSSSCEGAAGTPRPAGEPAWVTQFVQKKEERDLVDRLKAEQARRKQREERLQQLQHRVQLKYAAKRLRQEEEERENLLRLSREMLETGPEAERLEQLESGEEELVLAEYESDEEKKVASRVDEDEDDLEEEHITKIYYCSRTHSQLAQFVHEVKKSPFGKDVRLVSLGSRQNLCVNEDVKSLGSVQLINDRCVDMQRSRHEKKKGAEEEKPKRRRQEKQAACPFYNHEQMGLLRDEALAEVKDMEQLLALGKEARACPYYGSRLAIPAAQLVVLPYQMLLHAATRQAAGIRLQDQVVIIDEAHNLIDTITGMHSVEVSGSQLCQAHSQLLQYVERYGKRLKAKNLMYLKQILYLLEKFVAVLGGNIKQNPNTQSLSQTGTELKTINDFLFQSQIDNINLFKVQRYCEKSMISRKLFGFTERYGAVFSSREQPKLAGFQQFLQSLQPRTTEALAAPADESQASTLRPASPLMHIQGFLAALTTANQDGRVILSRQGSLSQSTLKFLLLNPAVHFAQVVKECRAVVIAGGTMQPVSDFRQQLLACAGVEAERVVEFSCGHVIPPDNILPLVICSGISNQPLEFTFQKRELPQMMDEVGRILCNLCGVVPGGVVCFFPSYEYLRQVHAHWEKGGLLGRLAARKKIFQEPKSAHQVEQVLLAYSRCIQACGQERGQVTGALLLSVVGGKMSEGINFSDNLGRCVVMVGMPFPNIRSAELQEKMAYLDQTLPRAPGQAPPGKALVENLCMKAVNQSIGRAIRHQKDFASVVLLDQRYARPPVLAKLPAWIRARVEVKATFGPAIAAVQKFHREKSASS
As to the kind of experiment: fluorescence anisotropy; apparent Kd, no ATP, 21 C, 10 nM DNA; EMSA: 40 mM Tris-HCl pH 7.4, 25 mM KCl, 5 mM MgCl2, 2 mM DTT, 2% glycerol, 100 ng/uL BSA, no ATP, 0.5 nM DNA, room temp 30 min; anisotropy: same buffer, 21 C; filter binding: 25 mM Tris-HCl pH 7.5, 25 mM KOAc, 1 mM Mg(OAc)2, 1 mM DTT, 100 ug/mL BSA, 37 C 30 min. As to conditions: protein: recombinant; tags: FLAG; fork, 19 bp duplex; 5' ssDNA tail 26 nt (DC26) and 3' ssDNA tail 25 nt (TSTEM25). For orientation: Polarisation of emitted light reports the rotation of a fluorescent probe.

The target of data set [2] is T4, ChlR1-Q23A (Homo sapiens, UniProt Q96FC9-2 1-906, Q23A).
T4 sequence: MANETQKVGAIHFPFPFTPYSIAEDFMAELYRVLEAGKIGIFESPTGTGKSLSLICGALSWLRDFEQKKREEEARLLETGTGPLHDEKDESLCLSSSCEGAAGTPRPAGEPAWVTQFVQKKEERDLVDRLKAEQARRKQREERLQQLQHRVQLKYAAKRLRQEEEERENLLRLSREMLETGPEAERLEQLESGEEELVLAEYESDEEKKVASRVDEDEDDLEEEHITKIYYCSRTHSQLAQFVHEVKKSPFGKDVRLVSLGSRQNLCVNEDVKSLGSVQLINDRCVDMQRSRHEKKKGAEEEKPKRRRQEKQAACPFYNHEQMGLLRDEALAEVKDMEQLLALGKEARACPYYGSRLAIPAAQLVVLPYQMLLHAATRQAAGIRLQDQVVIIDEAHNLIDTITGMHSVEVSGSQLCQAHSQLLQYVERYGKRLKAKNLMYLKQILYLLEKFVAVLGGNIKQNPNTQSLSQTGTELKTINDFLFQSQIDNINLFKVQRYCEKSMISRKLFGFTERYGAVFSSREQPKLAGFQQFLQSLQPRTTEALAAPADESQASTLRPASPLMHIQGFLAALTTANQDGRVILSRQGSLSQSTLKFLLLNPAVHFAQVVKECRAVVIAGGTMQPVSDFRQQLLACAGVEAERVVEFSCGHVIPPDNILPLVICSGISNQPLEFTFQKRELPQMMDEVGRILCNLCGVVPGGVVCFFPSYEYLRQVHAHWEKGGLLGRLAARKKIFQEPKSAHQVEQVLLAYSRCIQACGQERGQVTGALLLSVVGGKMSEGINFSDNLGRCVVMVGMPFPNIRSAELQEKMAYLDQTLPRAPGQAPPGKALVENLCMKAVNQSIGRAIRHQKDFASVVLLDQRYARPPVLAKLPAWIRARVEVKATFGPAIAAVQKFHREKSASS
Described as above. As to conditions: protein: recombinant; tags: FLAG; fork, 19 bp duplex; 5' ssDNA tail 26 nt (DC26) and 3' ssDNA tail 25 nt (TSTEM25).

Data set [3] deals with T3, ChlR1-WT. As to the kind of experiment: filter binding; 37 C, 1 mM Mg(OAc)2; EMSA: 40 mM Tris-HCl pH 7.4, 25 mM KCl, 5 mM MgCl2, 2 mM DTT, 2% glycerol, 100 ng/uL BSA, no ATP, 0.5 nM DNA, room temp 30 min; anisotropy: same buffer, 21 C; filter binding: 25 mM Tris-HCl pH 7.5, 25 mM KOAc, 1 mM Mg(OAc)2, 1 mM DTT, 100 ug/mL BSA, 37 C 30 min. The conditions noted are these: protein: recombinant; tags: FLAG; label: 32P (5' end); fork, 19 bp duplex; 5' ssDNA tail 26 nt (DC26) and 3' ssDNA tail 25 nt (TSTEM25). In general terms: A gel shift assay detects complexes by their altered migration in electrophoresis.

Data set [4] addresses T4, ChlR1-Q23A. The description is as above. The conditions noted are these: protein: recombinant; tags: FLAG; label: 32P (5' end); fork, 19 bp duplex; 5' ssDNA tail 26 nt (DC26) and 3' ssDNA tail 25 nt (TSTEM25).
Substrate in data set [5]: Nc1ncnc2c1ncn2[C@@H]1O[C@H](COP(=O)(O)OP(=O)(O)OP(=O)(O)O)[C@@H](O)[C@H]1O
As to the kind of experiment: [γ-32P]ATP hydrolysis, thin-layer chromatography. In kind it is biochemical, Homo sapiens. As to conditions: 2.1 nM M13mp18 ssDNA, ATP 31-4000 μM, 1 mM Mg acetate, pH 7.5, 37 °C, 30 min, kcat measured separately at 8.5 mM ATP.

With `Nc1ncnc2c1ncn2[C@@H]1O[C@H](COP(=O)(O)OP(=O)(O)OP(=O)(O)O)[C@@H](O)[C@H]1O` [ATP], the Kd is 43.8 nM at ChlR1 (DDX11), and 51.8 nM at ChlR1 (DDX11), ChlR1-WT.

B1: Forked duplex (DC26/TSTEM25), fluorescein (dsDNA)
DNA 1: TTTTTTTTTTTTTTTTTTTTTTCCCAGTAAAACGACGGCCAGTGC
DNA 2: GCACTGGCCGTCGTTTTACGGTCGTGACTGGGAAAACCCTGGCG
For B1, the Kd was 520 nM in the data set with ChlR1-WT [1] and 1000 nM with ChlR1-Q23A [2].

B2: Forked duplex (DC26/TSTEM25) (dsDNA)
DNA 1: TTTTTTTTTTTTTTTTTTTTTTCCCAGTAAAACGACGGCCAGTGC
DNA 2: GCACTGGCCGTCGTTTTACGGTCGTGACTGGGAAAACCCTGGCG
Regarding B2, the Kd in the data set with ChlR1-WT [3] came to 106 nM; in the data set with ChlR1-Q23A [4], 398 nM.

B3: ChlR1 (DDX11), ChlR1-WT (Homo sapiens) (protein)
chain: MANETQKVGAIHFPFPFTPYSIQEDFMAELYRVLEAGKIGIFESPTGTGKSLSLICGALSWLRDFEQKKREEEARLLETGTGPLHDEKDESLCLSSSCEGAAGTPRPAGEPAWVTQFVQKKEERDLVDRLKAEQARRKQREERLQQLQHRVQLKYAAKRLRQEEEERENLLRLSREMLETGPEAERLEQLESGEEELVLAEYESDEEKKVASRVDEDEDDLEEEHITKIYYCSRTHSQLAQFVHEVKKSPFGKDVRLVSLGSRQNLCVNEDVKSLGSVQLINDRCVDMQRSRHEKKKGAEEEKPKRRRQEKQAACPFYNHEQMGLLRDEALAEVKDMEQLLALGKEARACPYYGSRLAIPAAQLVVLPYQMLLHAATRQAAGIRLQDQVVIIDEAHNLIDTITGMHSVEVSGSQLCQAHSQLLQYVERYGKRLKAKNLMYLKQILYLLEKFVAVLGGNIKQNPNTQSLSQTGTELKTINDFLFQSQIDNINLFKVQRYCEKSMISRKLFGFTERYGAVFSSREQPKLAGFQQFLQSLQPRTTEALAAPADESQASTLRPASPLMHIQGFLAALTTANQDGRVILSRQGSLSQSTLKFLLLNPAVHFAQVVKECRAVVIAGGTMQPVSDFRQQLLACAGVEAERVVEFSCGHVIPPDNILPLVICSGISNQPLEFTFQKRELPQMMDEVGRILCNLCGVVPGGVVCFFPSYEYLRQVHAHWEKGGLLGRLAARKKIFQEPKSAHQVEQVLLAYSRCIQACGQERGQVTGALLLSVVGGKMSEGINFSDNLGRCVVMVGMPFPNIRSAELQEKMAYLDQTLPRAPGQAPPGKALVENLCMKAVNQSIGRAIRHQKDFASVVLLDQRYARPPVLAKLPAWIRARVEVKATFGPAIAAVQKFHREKSASS
As a reminder, the Km is the concentration of substrate that gives half-maximal velocity. As a reminder, the kcat is the maximal rate divided by the concentration of active sites. Turning to B3, in data set [5], the Km is 415.7 ± 58.4 µM and the kcat amounted to 1073.3 ± 46.7 s⁻¹.
